Paper PMC8615523

Columns and labels:
Assay in all cases: SEC; Ni-NTA eluates injected into a HiLoad 16/60 Superdex 200 pg column; elution with 30 mM Tris-HCl pH 7.4; absorbance at 280 nm
cpmCarmine185-186 = target: cpmCarmine185-186
cpmMaroon185-186 = target: cpmMaroon185-186
cpmMaroon196-186 = target: cpmMaroon196-186

cpmCarmine185-186
percent monomeric (cpmCarmine185-186): 60%

cpmMaroon185-186
stoichiometry N (cpmMaroon185-186): 2

cpmMaroon196-186
percent monomeric (cpmMaroon196-186): 70%
